Measurements taken from patent US20240116985A1 (published 2024).
Starred links: 1 amine or outer side, 2 acyl side, 3 side chain; linkers in the order of their positions; H or OH if unused. Positions of bridges follow the written chain, without caps; N, C: chain ends. Non-standard residues stand in square brackets, D forms with d. Primed or numbered codes have the meaning given here. *: point of attachment. PyrS2″ = (S)-3-amino-1-((pent-4-en-1-yloxy)carbonyl)pyrrolidine-3-carboxylic acid (stapling residue), C=CCCCOC(=O)N1CC[C@@](N[*:1])(C(=O)[*:2])C1; PyrS3″ = (S)-3-amino-1-((hex-5-en-1-yloxy)carbonyl)pyrrolidine-3-carboxylic acid (stapling residue), C=CCCCCOC(=O)N1CC[C@@](N[*:1])(C(=O)[*:2])C1; PyrS2 = (S)-3-amino-1-((pent-4-en-1-yloxy)carbonyl)pyrrolidine-3-carboxylic acid, C=CCCCOC(=O)N1CC[C@@](N[*:1])(C(=O)[*:2])C1; PyrS3 = (S)-3-amino-1-((hex-5-en-1-yloxy)carbonyl)pyrrolidine-3-carboxylic acid, C=CCCCCOC(=O)N1CC[C@@](N[*:1])(C(=O)[*:2])C1; B5(7) = 2-amino-2-(pent-4-en-1-yl)hept-6-enoic acid, two olefinic side chains, C=CCCCC(CCCC=C)(N[*:1])C(=O)[*:2]; B5(3) = 2,2-bis(4-pentenyl)glycine (stitching residue), C=CCCCC(CCCC=C)(N[*:1])C(=O)[*:2]; Me3AdamantC = 3,5,7-trimethyladamantane-1-carbonyl, CC12CC3(C)CC(C)(C1)CC(C(=O)*)(C2)C3; MeMorphBz = 4-(morpholinomethyl)benzoyl on Lys side chain, O=C(c1ccc(CN2CCOCC2)cc1)*; B5 = 2-amino-2-(pent-4-en-1-yl)hept-6-enoic acid, C=CCCCC(CCCC=C)(N[*:1])C(=O)[*:2]; Propanoyl(3-(1-naphthyl)) = O=C(CCc1cccc2ccccc12)*; Bta = N[C@@H](Cc1csc2ccccc12)C(=O)O; αAllylPro = C=CC[C@@]1(C(=O)O)CCCN1; Morpholinoacetyl = O=C(CN1CCOCC1)*; tBuAla = CC(C)(C)C[C@H](N)C(=O)O; 3Thi = N[C@@H](Cc1ccsc1)C(=O)O

T1: B-cat-Halo (beta-catenin HaloTag NanoBRET construct expressed in HEK293 cells) (UniProt P35222 1-781)
T1 sequence (looked up): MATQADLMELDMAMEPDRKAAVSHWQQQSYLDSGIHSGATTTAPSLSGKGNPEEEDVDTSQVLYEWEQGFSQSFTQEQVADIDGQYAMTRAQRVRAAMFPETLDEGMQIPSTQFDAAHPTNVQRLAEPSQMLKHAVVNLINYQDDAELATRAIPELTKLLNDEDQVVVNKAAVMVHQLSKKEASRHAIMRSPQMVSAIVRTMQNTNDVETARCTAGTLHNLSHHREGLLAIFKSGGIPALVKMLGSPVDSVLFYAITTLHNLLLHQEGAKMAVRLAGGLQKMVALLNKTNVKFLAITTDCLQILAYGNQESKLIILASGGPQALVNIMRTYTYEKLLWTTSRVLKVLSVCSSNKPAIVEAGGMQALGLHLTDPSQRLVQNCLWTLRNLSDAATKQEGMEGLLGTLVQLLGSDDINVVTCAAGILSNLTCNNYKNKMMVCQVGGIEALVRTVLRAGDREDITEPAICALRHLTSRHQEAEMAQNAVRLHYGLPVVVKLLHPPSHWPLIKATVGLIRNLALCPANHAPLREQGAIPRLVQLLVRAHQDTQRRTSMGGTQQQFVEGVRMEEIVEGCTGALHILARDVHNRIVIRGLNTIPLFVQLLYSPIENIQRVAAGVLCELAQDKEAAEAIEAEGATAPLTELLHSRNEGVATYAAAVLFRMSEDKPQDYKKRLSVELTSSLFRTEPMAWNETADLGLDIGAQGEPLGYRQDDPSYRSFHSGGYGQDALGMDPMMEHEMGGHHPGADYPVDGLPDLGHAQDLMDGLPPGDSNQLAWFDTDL

T2: B-cat-Halo (beta-catenin HaloTag fusion expressed in HEK293 cells) (Homo sapiens (Human), UniProt P35222 1-781)
T2 sequence: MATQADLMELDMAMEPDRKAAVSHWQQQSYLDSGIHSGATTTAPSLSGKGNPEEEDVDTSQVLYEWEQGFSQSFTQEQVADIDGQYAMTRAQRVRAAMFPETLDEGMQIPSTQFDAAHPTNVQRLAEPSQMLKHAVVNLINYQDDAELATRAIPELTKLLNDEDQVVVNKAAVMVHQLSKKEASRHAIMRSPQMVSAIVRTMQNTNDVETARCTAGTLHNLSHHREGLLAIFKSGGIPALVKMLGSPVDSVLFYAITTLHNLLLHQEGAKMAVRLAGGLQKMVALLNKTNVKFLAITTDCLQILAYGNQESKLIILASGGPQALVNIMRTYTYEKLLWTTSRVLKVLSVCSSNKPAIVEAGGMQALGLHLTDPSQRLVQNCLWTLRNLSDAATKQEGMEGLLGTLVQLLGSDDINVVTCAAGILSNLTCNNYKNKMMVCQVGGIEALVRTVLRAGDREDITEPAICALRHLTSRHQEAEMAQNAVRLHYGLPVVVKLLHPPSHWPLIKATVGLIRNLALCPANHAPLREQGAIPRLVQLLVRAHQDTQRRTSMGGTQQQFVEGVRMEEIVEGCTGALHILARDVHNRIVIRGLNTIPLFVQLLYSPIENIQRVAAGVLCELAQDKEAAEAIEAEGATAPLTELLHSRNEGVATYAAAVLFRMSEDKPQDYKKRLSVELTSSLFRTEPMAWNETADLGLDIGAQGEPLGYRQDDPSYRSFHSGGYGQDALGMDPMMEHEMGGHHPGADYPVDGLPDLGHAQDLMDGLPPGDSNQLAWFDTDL

B1: I-890 (peptide)
peptide: Ac-[αAllylPro]D[tBuAla][B5(3)]DDAK(MeMorphBz)FN[PyrS2″][3Thi][Bta]Q-NH2
modifications: staple 1-4, 4-11
B2: I-903 (peptide)
peptide: Ac-[αAllylPro]D[tBuAla][B5(3)]DDAAFN[PyrS2″][3Thi][Bta]QK(Propanoyl(3-(1-naphthyl)))-NH2
modifications: staple 1-4, 4-11
B3: I-905 (peptide)
peptide: Ac-[αAllylPro]D[tBuAla][B5(3)]DDAAFN[PyrS2″][3Thi][Bta]QK(Morpholinoacetyl)-NH2
modifications: staple 1-4, 4-11
B4: I-900 (peptide)
peptide: Ac-[αAllylPro]D[tBuAla][B5(3)]DDAK(Me3AdamantC)FN[PyrS2][3Thi][Bta]Q-NH2
modifications: staple 1-4, 4-11
B5: I-817 (peptide)
peptide: Ac-[αAllylPro]D[tBuAla][B5]DDAAFN[PyrS2″][3Thi][Bta][dT]-NH2
modifications: staple 1-4, 4-11
B6: I-809 (peptide)
peptide: Ac-[αAllylPro]D[tBuAla][B5(3)]DDAAFT[PyrS2″][3Thi][Bta]Q-NH2
modifications: staple 1-4, 4-11
B7: I-831 (peptide)
peptide: Ac-[αAllylPro]D[tBuAla][B5(7)]DDAAFN[PyrS3][3Thi][Bta]Q[dA]-NH2
modifications: staple 1-4, 4-11
B8: I-836 (peptide)
peptide: Ac-[αAllylPro]D[tBuAla][B5(3)]DNAAFN[PyrS2″][3Thi][Bta]Q-NH2
modifications: staple 1-4, 4-11
B9: I-819 (peptide)
peptide: Ac-[αAllylPro]D[tBuAla][B5]DDAAFN[PyrS2″][3Thi][Bta]QA-NH2
modifications: staple 1-4, 4-11
B10: I-820 (peptide)
peptide: Ac-[αAllylPro]D[tBuAla][B5]DDAAFN[PyrS2″][3Thi][Bta]HA-NH2
modifications: staple 1-4, 4-11
B11: I-835 (peptide)
peptide: Ac-[αAllylPro]D[tBuAla][B5(3)]DDAAFN[PyrS3″][3Thi][Bta]N[dA]-NH2
modifications: staple 1-4, 4-11
B12: I-818 (peptide)
peptide: Ac-[αAllylPro]D[tBuAla][B5]DDAAFN[PyrS2″][3Thi][Bta][dN]-NH2
modifications: staple 1-4, 4-11
B13: I-822 (peptide)
peptide: Ac-[αAllylPro]D[tBuAla][B5]DDAAFN[PyrS2″][3Thi][Bta]Q[dA]-NH2
modifications: staple 1-4, 4-11
B14: I-823 (peptide)
peptide: Ac-[αAllylPro]D[tBuAla][B5(7)]DDAAFN[PyrS2][3Thi][Bta]H[dA]-NH2
modifications: staple 1-4, 4-11
B15: I-815 (peptide)
peptide: Ac-[αAllylPro]D[tBuAla][B5]DDAAFN[PyrS2″][3Thi][Bta]S-NH2
modifications: staple 1-4, 4-11
B16: I-814 (peptide)
peptide: Ac-[αAllylPro]D[tBuAla][B5]DDAAFN[PyrS2″][3Thi][Bta]T-NH2
modifications: staple 1-4, 4-11

Each binder was assayed against T1, B-cat-Halo (beta-catenin HaloTag …) (assay: cell-based or functional assay).
With B1 the “NanoBRET Abs IC50” value was over 20 µM.
For B2, the “NanoBRET Abs IC50” value was 7.8 µM.
B3 was tested, and the “NanoBRET Abs IC50” value was 31.6 µM.
With B4 the “NanoBRET Abs IC50” value was over 20 µM.

Each binder was assayed against T2, B-cat-Halo (beta-catenin HaloTag fusion …) (assay: cell-based or functional assay).
For B5, the “NanoBRET % inh @ 10 uM” value was 45% and the “NanoBRET IC50” value was 6.8 µM.
With B6 the “NanoBRET IC50” value was 11.7 µM.
With B7 the “NanoBRET % inh @ 10 uM” value was 32.4%.
With B8 the “NanoBRET Abs IC50” value was 16.9 µM.
In the case of B9, the “NanoBRET % inh @ 10 uM” value is reported as 37.8%.
With B10 the “NanoBRET % inh @ 10 uM” value was 30.8%.
For B11, the “NanoBRET % inh @ 10 uM” value was 27.6%.
B12 was tested, and the “NanoBRET % inh @ 10 uM” value was 31.4%.
For B13, the “NanoBRET % inh @ 10 uM” value was 53% and the “NanoBRET IC50” value was 7.7 µM.
In the case of B14, the “NanoBRET % inh @ 10 uM” value is reported as 37.5% and the “NanoBRET IC50” value is reported as over 10 µM.
For B15, the “NanoBRET IC50” value was 11.8 µM.
B16 was tested, and the “NanoBRET IC50” value was 12.7 µM.
